Laboratory results published in article PMC10786891, “Massively parallel profiling of RNA-targeting CRISPR-Cas13d”.

T1: EsCas13d, nuclease-dead (Eubacterium siraeum, UniProt B0MS50, R295A;H300A;R849A;H854A)
T1 sequence: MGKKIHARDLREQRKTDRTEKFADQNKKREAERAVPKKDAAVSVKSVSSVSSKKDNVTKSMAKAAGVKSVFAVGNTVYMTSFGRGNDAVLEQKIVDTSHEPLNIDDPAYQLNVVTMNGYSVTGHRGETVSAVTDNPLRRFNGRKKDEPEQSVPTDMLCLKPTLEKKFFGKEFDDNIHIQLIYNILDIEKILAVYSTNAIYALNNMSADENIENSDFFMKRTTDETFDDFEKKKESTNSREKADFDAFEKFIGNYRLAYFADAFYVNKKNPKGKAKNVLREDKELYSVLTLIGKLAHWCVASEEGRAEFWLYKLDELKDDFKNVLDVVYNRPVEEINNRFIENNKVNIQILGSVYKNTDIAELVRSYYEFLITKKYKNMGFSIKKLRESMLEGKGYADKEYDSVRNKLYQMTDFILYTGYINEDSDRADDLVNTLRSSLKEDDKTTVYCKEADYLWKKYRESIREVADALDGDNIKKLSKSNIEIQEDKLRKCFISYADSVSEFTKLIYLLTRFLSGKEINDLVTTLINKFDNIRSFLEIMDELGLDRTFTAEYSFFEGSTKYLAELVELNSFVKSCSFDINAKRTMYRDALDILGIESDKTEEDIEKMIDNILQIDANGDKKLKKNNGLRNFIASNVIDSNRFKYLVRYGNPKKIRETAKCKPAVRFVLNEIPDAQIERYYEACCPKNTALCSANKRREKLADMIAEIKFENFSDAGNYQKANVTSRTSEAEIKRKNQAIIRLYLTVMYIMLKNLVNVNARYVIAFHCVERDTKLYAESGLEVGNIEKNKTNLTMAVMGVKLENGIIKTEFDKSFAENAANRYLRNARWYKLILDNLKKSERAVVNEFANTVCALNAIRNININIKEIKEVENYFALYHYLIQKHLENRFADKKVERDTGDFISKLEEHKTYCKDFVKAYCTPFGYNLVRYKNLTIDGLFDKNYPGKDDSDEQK


Biological target: T1, EsCas13d, nuclease-dead
Assay: crRNA (strand 1, pre-loaded); Mg2+; 40 mM Tris-HCl pH 7.5, 150 mM NaCl, 6 mM MgCl2, 1 mM DTT, 0.1% Tween-20, 0.2 mg/ml BSA; 25 C; 10 min per concentration, then washed
Conditions: tags: His6-TwinStrep-SUMO cleaved; N-terminal SNAP kept (SNAP-Surface 488); label: 3' end held by stalled T7 RNA polymerase

Binder | Kd [nM]
target 1 insC 3' of 12,insA 3' of 6 (mixed) RNA 1: CACCCGUGCAAAAAUGCAGGGGUCUAAAACUGAGCGGAUAACCUCUCUAUGG RNA 2: GGGAAUGGAUCCACAUCUACGAAUUCGUACCAUAGAGAGGCUUAUCCAGCUCACCGAGAUCGGAAGAGCACACGU | 11.1 ± 0.5
target 1 U11C,G12U (mixed) RNA 1: CACCCGUGCAAAAAUGCAGGGGUCUAAAACUGAGCGGAUAACCUCUCUAUGG RNA 2: GGGAAUGGAUCCACAUCUACGAAUUCGUACCAUAGAGAGUCUAUCCGCUCACCGAGAUCGGAAGAGCACACGU | 10.2 ± 0.5
target 1 del15,del17 (mixed) RNA 1: CACCCGUGCAAAAAUGCAGGGGUCUAAAACUGAGCGGAUAACCUCUCUAUGG RNA 2: GGGAAUGGAUCCACAUCUACGAAUUCGUACCAUAAAGGUUAUCCGCUCACCGAGAUCGGAAGAGCACACGU | 90 ± 40
target 1 insU 3' of 12,insA 3' of 5 (mixed) RNA 1: CACCCGUGCAAAAAUGCAGGGGUCUAAAACUGAGCGGAUAACCUCUCUAUGG RNA 2: GGGAAUGGAUCCACAUCUACGAAUUCGUACCAUAGAGAGGUUUAUCCGACUCACCGAGAUCGGAAGAGCACACGU | 4.32 ± 0.35
target 1 insG 3' of 21,insA 3' of 7 (mixed) RNA 1: CACCCGUGCAAAAAUGCAGGGGUCUAAAACUGAGCGGAUAACCUCUCUAUGG RNA 2: GGGAAUGGAUCCACAUCUACGAAUUCGUACCGAUAGAGAGGUUAUCACGCUCACCGAGAUCGGAAGAGCACACGU | 46 ± 5
target 1 insU 3' of 15,insC 3' of 12 (mixed) RNA 1: CACCCGUGCAAAAAUGCAGGGGUCUAAAACUGAGCGGAUAACCUCUCUAUGG RNA 2: GGGAAUGGAUCCACAUCUACGAAUUCGUACCAUAGAGUAGGCUUAUCCGCUCACCGAGAUCGGAAGAGCACACGU | 35 ± 8
target 1 insU 3' of 5,insC 3' of 3 (mixed) RNA 1: CACCCGUGCAAAAAUGCAGGGGUCUAAAACUGAGCGGAUAACCUCUCUAUGG RNA 2: GGGAAUGGAUCCACAUCUACGAAUUCGUACCAUAGAGAGGUUAUCCGUCUCCACCGAGAUCGGAAGAGCACACGU | 38 ± 6
target 1 insG 3' of 16,insC 3' of 11 (mixed) RNA 1: CACCCGUGCAAAAAUGCAGGGGUCUAAAACUGAGCGGAUAACCUCUCUAUGG RNA 2: GGGAAUGGAUCCACAUCUACGAAUUCGUACCAUAGAGGAGGUCUAUCCGCUCACCGAGAUCGGAAGAGCACACGU | 46 ± 11
target 1 A14G,C21U (mixed) RNA 1: CACCCGUGCAAAAAUGCAGGGGUCUAAAACUGAGCGGAUAACCUCUCUAUGG RNA 2: GGGAAUGGAUCCACAUCUACGAAUUCGUACUAUAGAGGGGUUAUCCGCUCACCGAGAUCGGAAGAGCACACGU | 6.9 ± 0.4
target 1 C2A,U19A (mixed) RNA 1: CACCCGUGCAAAAAUGCAGGGGUCUAAAACUGAGCGGAUAACCUCUCUAUGG RNA 2: GGGAAUGGAUCCACAUCUACGAAUUCGUACCAAAGAGAGGUUAUCCGCUAACCGAGAUCGGAAGAGCACACGU | 32.7 ± 3.3
target 1 U10C,C22A (mixed) RNA 1: CACCCGUGCAAAAAUGCAGGGGUCUAAAACUGAGCGGAUAACCUCUCUAUGG RNA 2: GGGAAUGGAUCCACAUCUACGAAUUCGUAACAUAGAGAGGUCAUCCGCUCACCGAGAUCGGAAGAGCACACGU | 35.5 ± 2
target 1 insC 3' of 17,insC 3' of 9 (mixed) RNA 1: CACCCGUGCAAAAAUGCAGGGGUCUAAAACUGAGCGGAUAACCUCUCUAUGG RNA 2: GGGAAUGGAUCCACAUCUACGAAUUCGUACCAUAGCAGAGGUUACUCCGCUCACCGAGAUCGGAAGAGCACACGU | 58 ± 13
target 1 insC 3' of 10,insG 3' of 6 (mixed) RNA 1: CACCCGUGCAAAAAUGCAGGGGUCUAAAACUGAGCGGAUAACCUCUCUAUGG RNA 2: GGGAAUGGAUCCACAUCUACGAAUUCGUACCAUAGAGAGGUUCAUCCGGCUCACCGAGAUCGGAAGAGCACACGU | 18.8 ± 2.1
